Data as given in publication PMC5150656.
Blank lines part the entries; values can stand above or below the substance they belong to.

Legend:
[1] = molecular target: CaV1.2 holochannel tagged with EYFP on its carboxy-terminus, co-expressed with β2a and α2δ subunits (UniProt P15381); test: FRET or BRET; FRET 2-hybrid (3^3-FRET and E-FRET) in single live HEK293 cells, room temperature, elevated cytosolic Ca2+: Tyrode's bath with 10 mM Ca2+ and 4 μM ionomycin; relative (effective) dissociation constants Kd,EFF; stoichiometry ratio ν = EA,max/ED,max
[2] = molecular target: EYFP tagged myosin Va two tandem IQ domain peptide (IQ5-6) (mouse) (UniProt Q99104); test: FRET or BRET; FRET 2-hybrid (3^3-FRET and E-FRET) in single live HEK293 cells, room temperature, basal (resting) Ca2+: Tyrode's bath with 2 mM Ca2+; relative (effective) dissociation constants Kd,EFF; stoichiometry ratio ν = EA,max/ED,max
[3] = molecular target: EYFP-tagged full length myosin Va neck domain peptide containing six IQ domains (IQ1-6) (mouse) (UniProt Q99104); test: as above
[4] = molecular target: EYFP tagged myosin Va three tandem IQ domain peptide (IQ4-6) (mouse) (UniProt Q99104); test: as above
[5] = molecular target: EYFP tagged myosin Va four tandem IQ domain peptide (IQ3-6) (mouse) (UniProt Q99104); test: as above
[6] = molecular target: NaV1.4 with EYFP fused to its carboxy-terminus (rat) (UniProt P15390); test: as above
[7] = molecular target: CaV1.2 holochannel tagged with EYFP on its carboxy-terminus, co-expressed with β2a and α2δ subunits (UniProt P15381); test: as above
[8] = molecular target: EYFP tagged myosin Va five tandem IQ domain truncation (IQ2-6) (mouse) (UniProt Q99104); test: as above
[9] = molecular target: EYFP tagged myosin Va peptide containing a single IQ domain (IQ6) (mouse) (UniProt Q99104); test: as above
[10] = molecular target: EYFP-tagged myosin Va peptide containing three tandem IQ domains (IQ4-6) (mouse) (UniProt Q99104); test: FRET or BRET; FRET 2-hybrid in live HEK293 cells co-expressing a CFP-tagged and a YFP-tagged partner; 3^3-FRET (EA) and E-FRET (ED) efficiencies from single cells, room temperature; stoichiometry from the ratio EA,max/ED,max
[11] = molecular target: YFP-fused myosin Va peptide containing five tandem IQ motifs (IQ2-6) (mouse) (UniProt Q99104); test: as above
[12] = molecular target: EYFP-fused myosin Va peptide containing four tandem IQ domains (IQ3-6) (mouse) (UniProt Q99104); test: as above
[13] = molecular target: EYFP-tagged myosin Va peptide containing two IQ domains (IQ5-6) (mouse) (UniProt Q99104); test: as above
[14] = molecular target: ECFP tagged myosin Va peptide containing a single IQ domain (IQ6) (mouse) (UniProt Q99104); test: as above
[15] = molecular target: ECFP fused myosin Va peptide containing five tandem IQ domains (IQ2-6) (mouse) (UniProt Q99104); test: as above
[16] = molecular target: ECFP fused myosin Va peptide containing three tandem IQ domains (IQ4-6) (mouse) (UniProt Q99104); test: as above
Chain of ECFP fused myosin Va peptide containing three tandem IQ domains (IQ4-6) (mouse) (Q99104 837-920): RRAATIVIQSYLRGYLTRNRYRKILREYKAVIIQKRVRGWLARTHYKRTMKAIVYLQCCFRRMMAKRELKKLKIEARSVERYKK

Chain of CaV1.2 holochannel tagged with EYFP on its carboxy-terminus, co-expressed with β2a and α2δ subunits (P15381 whole entry, stated change not applied, chain 1 of 3, other chains not shown, the tested form may be a part): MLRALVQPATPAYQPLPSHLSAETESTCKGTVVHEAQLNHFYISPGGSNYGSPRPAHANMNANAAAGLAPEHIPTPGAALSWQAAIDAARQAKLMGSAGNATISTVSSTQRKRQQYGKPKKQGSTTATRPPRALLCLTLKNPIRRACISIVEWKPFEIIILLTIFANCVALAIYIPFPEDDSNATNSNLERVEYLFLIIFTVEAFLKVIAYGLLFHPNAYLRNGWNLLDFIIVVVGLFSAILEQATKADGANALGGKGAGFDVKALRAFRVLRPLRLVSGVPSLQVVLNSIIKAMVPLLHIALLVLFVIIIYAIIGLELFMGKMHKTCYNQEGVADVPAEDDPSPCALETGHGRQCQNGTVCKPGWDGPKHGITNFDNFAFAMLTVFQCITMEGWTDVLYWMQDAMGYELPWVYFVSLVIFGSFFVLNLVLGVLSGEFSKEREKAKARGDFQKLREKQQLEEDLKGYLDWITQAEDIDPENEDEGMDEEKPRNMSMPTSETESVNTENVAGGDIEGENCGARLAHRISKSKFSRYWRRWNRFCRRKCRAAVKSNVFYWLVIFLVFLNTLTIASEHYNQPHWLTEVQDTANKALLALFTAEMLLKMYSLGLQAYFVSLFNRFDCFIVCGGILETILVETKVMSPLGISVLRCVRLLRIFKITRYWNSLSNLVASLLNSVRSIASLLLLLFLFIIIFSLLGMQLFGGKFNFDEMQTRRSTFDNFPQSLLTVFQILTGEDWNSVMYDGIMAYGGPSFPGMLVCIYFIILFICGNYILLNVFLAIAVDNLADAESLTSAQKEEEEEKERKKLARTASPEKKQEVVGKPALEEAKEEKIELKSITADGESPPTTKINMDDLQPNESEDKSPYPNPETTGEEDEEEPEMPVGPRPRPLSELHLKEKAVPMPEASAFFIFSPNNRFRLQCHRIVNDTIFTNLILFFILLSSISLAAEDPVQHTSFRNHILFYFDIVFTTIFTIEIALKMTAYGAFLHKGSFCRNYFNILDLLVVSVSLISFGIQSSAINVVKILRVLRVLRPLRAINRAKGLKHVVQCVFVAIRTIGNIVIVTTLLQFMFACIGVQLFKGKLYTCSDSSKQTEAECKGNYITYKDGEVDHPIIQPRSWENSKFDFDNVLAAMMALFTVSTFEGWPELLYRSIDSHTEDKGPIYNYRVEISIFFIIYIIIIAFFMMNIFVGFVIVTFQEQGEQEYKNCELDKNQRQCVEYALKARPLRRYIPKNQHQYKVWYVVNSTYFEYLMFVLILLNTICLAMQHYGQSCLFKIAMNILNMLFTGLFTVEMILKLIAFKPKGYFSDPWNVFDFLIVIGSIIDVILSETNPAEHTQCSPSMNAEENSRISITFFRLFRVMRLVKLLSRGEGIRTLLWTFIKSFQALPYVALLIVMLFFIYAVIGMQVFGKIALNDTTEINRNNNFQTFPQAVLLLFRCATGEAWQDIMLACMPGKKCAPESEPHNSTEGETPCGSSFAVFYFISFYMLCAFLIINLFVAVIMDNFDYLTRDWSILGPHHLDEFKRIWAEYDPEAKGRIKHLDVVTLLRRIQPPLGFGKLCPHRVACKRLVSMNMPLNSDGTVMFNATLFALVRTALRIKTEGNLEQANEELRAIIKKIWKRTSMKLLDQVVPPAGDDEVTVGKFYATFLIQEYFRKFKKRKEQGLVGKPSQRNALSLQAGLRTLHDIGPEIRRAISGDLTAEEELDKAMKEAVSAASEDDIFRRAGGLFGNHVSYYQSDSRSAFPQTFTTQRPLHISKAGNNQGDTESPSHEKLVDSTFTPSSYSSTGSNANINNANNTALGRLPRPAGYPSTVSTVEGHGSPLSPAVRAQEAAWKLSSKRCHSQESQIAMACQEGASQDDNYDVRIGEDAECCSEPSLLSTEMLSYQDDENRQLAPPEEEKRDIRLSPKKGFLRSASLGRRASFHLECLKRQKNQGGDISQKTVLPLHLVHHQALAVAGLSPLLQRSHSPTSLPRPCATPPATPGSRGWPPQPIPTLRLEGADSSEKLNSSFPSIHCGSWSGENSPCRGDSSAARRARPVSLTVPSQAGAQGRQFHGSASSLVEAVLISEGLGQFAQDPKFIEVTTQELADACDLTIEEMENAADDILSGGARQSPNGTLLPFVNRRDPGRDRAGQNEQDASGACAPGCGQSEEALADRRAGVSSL
Chain of CaV1.2 holochannel tagged with EYFP on its carboxy-terminus, co-expressed with β2a and α2δ subunits (P54290 25-1091, stated change not applied, chain 3 of 3, other chains not shown, further chain): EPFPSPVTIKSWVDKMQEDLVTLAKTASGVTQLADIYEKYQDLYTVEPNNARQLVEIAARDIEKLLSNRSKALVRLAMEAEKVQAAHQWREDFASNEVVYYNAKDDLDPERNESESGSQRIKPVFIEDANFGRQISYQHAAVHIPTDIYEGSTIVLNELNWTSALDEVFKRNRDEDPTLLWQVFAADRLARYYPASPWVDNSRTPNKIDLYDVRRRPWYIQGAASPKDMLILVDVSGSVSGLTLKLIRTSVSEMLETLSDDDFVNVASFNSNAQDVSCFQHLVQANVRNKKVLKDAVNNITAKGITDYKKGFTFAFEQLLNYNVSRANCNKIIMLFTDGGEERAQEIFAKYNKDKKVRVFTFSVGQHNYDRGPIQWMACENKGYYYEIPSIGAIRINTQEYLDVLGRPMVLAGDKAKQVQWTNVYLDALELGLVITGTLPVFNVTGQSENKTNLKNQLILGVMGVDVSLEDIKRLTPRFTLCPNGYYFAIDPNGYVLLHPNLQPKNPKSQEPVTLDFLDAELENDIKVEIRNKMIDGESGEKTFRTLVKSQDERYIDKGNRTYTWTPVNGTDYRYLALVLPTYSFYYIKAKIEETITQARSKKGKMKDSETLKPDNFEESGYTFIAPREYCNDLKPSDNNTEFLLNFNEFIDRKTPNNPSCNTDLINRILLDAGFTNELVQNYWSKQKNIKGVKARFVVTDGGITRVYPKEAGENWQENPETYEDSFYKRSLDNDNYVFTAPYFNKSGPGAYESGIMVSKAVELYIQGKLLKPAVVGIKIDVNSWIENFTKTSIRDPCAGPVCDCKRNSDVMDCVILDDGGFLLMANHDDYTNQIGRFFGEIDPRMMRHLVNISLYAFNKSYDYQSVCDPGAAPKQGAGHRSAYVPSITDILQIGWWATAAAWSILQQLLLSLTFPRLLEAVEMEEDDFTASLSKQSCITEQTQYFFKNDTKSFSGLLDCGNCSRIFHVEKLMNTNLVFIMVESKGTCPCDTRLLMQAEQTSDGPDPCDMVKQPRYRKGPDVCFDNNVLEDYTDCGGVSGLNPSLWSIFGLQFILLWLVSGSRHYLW
Chain of EYFP tagged myosin Va peptide containing a single IQ domain (IQ6) (mouse) (Q99104 885-920): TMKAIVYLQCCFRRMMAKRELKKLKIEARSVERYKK
Chain of ECFP tagged myosin Va peptide containing a single IQ domain (IQ6) (mouse) (Q99104 885-920): as above
Chain of EYFP tagged myosin Va four tandem IQ domain peptide (IQ3-6) (mouse) (Q99104 814-920): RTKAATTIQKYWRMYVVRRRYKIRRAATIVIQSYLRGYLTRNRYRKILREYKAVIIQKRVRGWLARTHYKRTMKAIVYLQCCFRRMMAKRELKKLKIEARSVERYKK
Chain of EYFP-fused myosin Va peptide containing four tandem IQ domains (IQ3-6) (mouse) (Q99104 814-920): as above
Chain of YFP-fused myosin Va peptide containing five tandem IQ motifs (IQ2-6) (mouse) (Q99104 789-920): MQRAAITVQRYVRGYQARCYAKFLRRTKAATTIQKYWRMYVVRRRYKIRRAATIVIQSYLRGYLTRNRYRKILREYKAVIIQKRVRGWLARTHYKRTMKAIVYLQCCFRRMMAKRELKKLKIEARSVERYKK
Chain of EYFP tagged myosin Va five tandem IQ domain truncation (IQ2-6) (mouse) (Q99104 789-920): as above
Chain of ECFP fused myosin Va peptide containing five tandem IQ domains (IQ2-6) (mouse) (Q99104 789-920): as above
Chain of EYFP-tagged full length myosin Va neck domain peptide containing six IQ domains (IQ1-6) (mouse) (Q99104 766-920): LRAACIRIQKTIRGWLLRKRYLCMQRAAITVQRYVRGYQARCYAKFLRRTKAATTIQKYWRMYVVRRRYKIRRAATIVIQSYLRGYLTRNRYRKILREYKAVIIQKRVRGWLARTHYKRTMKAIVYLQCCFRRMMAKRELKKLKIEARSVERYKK
Chain of EYFP tagged myosin Va two tandem IQ domain peptide (IQ5-6) (mouse) (Q99104 862-920): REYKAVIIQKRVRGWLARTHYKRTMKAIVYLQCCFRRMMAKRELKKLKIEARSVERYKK
Chain of EYFP-tagged myosin Va peptide containing two IQ domains (IQ5-6) (mouse) (Q99104 862-920): as above
Chain of EYFP-tagged myosin Va peptide containing three tandem IQ domains (IQ4-6) (mouse) (Q99104 837-920): as the sequence (Q99104 837-920) above
Chain of EYFP tagged myosin Va three tandem IQ domain peptide (IQ4-6) (mouse) (Q99104 837-920): as above

stoichiometry N (CaM per peptide (donors per acceptor)) [2]: 2
stoichiometry N (CaM per peptide (donors per acceptor)) [3]: 5.91
stoichiometry N (CaM per peptide (donors per acceptor)) [4]: 3
stoichiometry N (CaM per peptide (donors per acceptor)) [5]: 4
stoichiometry N (CaM per channel (donors per acceptor)) [6]: 1.14
stoichiometry N (CaM per peptide (donors per acceptor)) [8]: 5
stoichiometry N (CaM per peptide (donors per acceptor)) [9]: 0.97
Substance: ECFP-tagged calmodulin (CaM) (from UniProt P0DP23 1-149) (natural protein)
stoichiometry N (CaM per channel (donors per acceptor)) [1]: 1.94
Kd [7]: 115 nM
stoichiometry N (CaM per channel (donors per acceptor)) [7]: 1.1

stoichiometry N [10]: 3
stoichiometry N [11]: 5
stoichiometry N [12]: 4
stoichiometry N [13]: 2
Substance: ECFP-tagged calmodulin (from UniProt P0DP23 1-149) (natural protein)

stoichiometry N [14]: 1
stoichiometry N [15]: 5
stoichiometry N [16]: 3
Substance: EYFP-tagged calmodulin (from UniProt P0DP23 1-149) (natural protein)
